In publication PMC9082959, “Mechanism of Assembly of the Non-Covalent Spectrin Tetramerization Domain from Intrinsically Disordered Partners” (Journal of molecular biology, 2013):
Residue numbers refer to the chain shown, from its start.

Assays:
Test in all cases: ITC; β16β17 at 25–50 μM in the cell titrated with 15–20 injections to 2–2.5 eq of α0α1; one-site binding model; PBS (50 mM sodium phosphate, 150 mM NaCl, pH 7.04), 25 °C; mutants only against the wild-type partner
Settings in all cases: both partners purified
β16β17 C9G = molecular target: T1, β16β17 C9G (human, UniProt P11277 1898-2083, C2012G)
T1 construct: erythrocyte β-spectrin, human, residues 1898-2083 (β16β17); mutant of m2; also called C2012G; source: E. coli C41(DE3), purified (Ni2+ agarose, thrombin cleavage, gel filtration)
T1 sequence (looked up): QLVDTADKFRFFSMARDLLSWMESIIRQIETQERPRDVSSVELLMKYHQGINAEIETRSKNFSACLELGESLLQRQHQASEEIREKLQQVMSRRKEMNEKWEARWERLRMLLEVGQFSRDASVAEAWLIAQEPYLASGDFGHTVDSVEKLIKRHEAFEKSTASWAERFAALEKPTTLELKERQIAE

β16β17 R13G = molecular target: T2, β16β17 R13G (human, UniProt P11277 1898-2083, R2016G)
T2 construct: erythrocyte β-spectrin, human, residues 1898-2083 (β16β17); mutant of m2; also called R2016G; source: E. coli C41(DE3), purified (Ni2+ agarose, thrombin cleavage, gel filtration)
T2 sequence (looked up): T1 sequence (looked up) with G115C, R119G

β16β17 A24G = molecular target: T3, β16β17 A24G (human, UniProt P11277 1898-2083, A2027G)
T3 construct: erythrocyte β-spectrin, human, residues 1898-2083 (β16β17); mutant of m2; also called A2027G; source: E. coli C41(DE3), purified (Ni2+ agarose, thrombin cleavage, gel filtration)
T3 sequence (looked up): T1 sequence (looked up) with G115C, A130G

β16β17 K43G = molecular target: T4, β16β17 K43G (human, UniProt P11277 1898-2083, K2046G)
T4 construct: erythrocyte β-spectrin, human, residues 1898-2083 (β16β17); mutant of m2; also called K2046G; source: E. coli C41(DE3), purified (Ni2+ agarose, thrombin cleavage, gel filtration)
T4 sequence (looked up): T1 sequence (looked up) with G115C, K149G

β16β17 S57G = molecular target: T5, β16β17 S57G (human, UniProt P11277 1898-2083, S2060G)
T5 construct: erythrocyte β-spectrin, human, residues 1898-2083 (β16β17); mutant of m2; also called S2060G; source: E. coli C41(DE3), purified (Ni2+ agarose, thrombin cleavage, gel filtration)
T5 sequence (looked up): T1 sequence (looked up) with G115C, S163G

β16β17 K67A = molecular target: T6, β16β17 K67A (human, UniProt P11277 1898-2083, K2070A)
T6 construct: erythrocyte β-spectrin, human, residues 1898-2083 (β16β17); mutant of m2; also called K2070A; source: E. coli C41(DE3), purified (Ni2+ agarose, thrombin cleavage, gel filtration)
T6 sequence (looked up): T1 sequence (looked up) with G115C, K173A

Ka (β16β17 C9G): 470000 M⁻¹
Ka (β16β17 R13G): 71000 M⁻¹
Ka (β16β17 A24G): 242000 M⁻¹
Ka (β16β17 K43G): 328000 M⁻¹
Ka (β16β17 S57G): 900000 M⁻¹
Ka (β16β17 K67A): 500000 M⁻¹
B1: α0α1 (erythrocyte α-spectrin residues 2–163), wild type (domain or fragment, human, UniProt P02549 2-163, looked up)
chain: EQFPKETVVESSGPKVLETAEEIQERRQEVLTRYQSFKERVAERGQKLEDSYHLQVFKRDADDLGKWIMEKVNILTDKSYEDPTNIQGKYQKHQSLEAEVQTKSRLMSELEKTREERFTMGHSAHEETKAHIEELRHLWDLLLELTLEKGDQLLRALKFQQY
notes: synthetic gene (GenScript) in a modified pRSETA plasmid; also called α1α0; source: E. coli C41(DE3), purified (Ni2+ agarose, thrombin cleavage, gel filtration)
